Experimental data from paper PMC4245980.

Key:
Test in all cases: EMSA
McbR E93S/R139F = McbR E93S/R139F (Escherichia coli, UniProt P76114 1-221, E93S;R139F)
McbR R89A/E93A/R139A = McbR R89A/E93A/R139A (Escherichia coli, UniProt P76114 1-221, R89A;E93A;R139A)
McbR WT = McbR WT (Escherichia coli, UniProt P76114 1-221)

Measured: binding result

B1: PyciGECO (dsDNA)
DNA 1: AATTGTTAATATATCCAGAATGTTCCTCAAAATATATTTTCCCTCTAT
DNA 2: ATAGAGGGAAAATATATTTTGAGGAACATTCTGGATATATTAACAATT
binds: all assays above
